Molecular target: T1, Human C1q (human, UniProt P02745 23-245; P02746 28-253; P02747 29-245)
T1 construct: C1q A chain, human, from plasma; C1q B chain, human, from plasma; C1q C chain, human, from plasma; 18 polypeptides (6A, 6B, 6C), 460 kDa, as the introduction says; also called full-length C1q; source: purified from human plasma (IgG-Sepharose, HiTrap Protein G); copies: 6 + 6 + 6
Experiment: ELISA; human C1q coated on wells (5, 2.5, 1.25, 0.625 μg/well); 2.5 μg gC1qR in 50 mM Tris-HCl pH 8.0, 100 mM NaCl, 5 mM CaCl2; 1 h at 37°C, then 1 h at 4°C; detected with anti-gC1qR polyclonal antibody and Protein A-HRP
Conditions: both partners purified

T1 sequence (P02745 23-245, chain 1 of 3): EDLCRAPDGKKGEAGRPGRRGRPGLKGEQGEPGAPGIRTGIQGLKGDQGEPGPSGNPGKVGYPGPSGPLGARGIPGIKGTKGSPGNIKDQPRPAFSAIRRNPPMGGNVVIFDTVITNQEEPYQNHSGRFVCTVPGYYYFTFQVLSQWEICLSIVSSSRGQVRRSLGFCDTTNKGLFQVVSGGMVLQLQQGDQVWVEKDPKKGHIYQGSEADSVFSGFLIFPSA
T1 sequence (P02746 28-253, chain 2 of 3): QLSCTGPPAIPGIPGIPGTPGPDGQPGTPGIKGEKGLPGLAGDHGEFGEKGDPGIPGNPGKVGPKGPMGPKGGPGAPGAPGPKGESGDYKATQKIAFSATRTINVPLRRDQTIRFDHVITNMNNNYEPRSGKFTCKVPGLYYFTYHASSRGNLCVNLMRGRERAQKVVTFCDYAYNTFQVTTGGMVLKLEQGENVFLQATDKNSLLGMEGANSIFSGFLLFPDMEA
T1 sequence (P02747 29-245, chain 3 of 3): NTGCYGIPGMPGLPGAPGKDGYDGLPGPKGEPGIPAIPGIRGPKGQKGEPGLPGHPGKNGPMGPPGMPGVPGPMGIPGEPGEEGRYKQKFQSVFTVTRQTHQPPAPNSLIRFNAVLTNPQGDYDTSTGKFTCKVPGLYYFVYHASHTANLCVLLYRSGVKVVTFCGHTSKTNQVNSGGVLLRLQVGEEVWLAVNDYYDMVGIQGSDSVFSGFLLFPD

B1: Recombinant mature human gC1qR (residues 74-282) (receptor, UniProt Q07021 74-282, looked up)
chain: LHTDGDKAFVDFLSDEIKEERKIQKHKTLPKMSGGWELELNGTEAKLVRKVAGEKITVTFNINNSIPPTFDGEEEPSQGQKVEEQEPELTSTPNFVVEVIKNDDGKKALVLDCHYPEDEVGQEDEAESDIFSIREVSFQSTGESEWKDTNYTLNTDSLDWALYDHLMDFLADRGVDNTFADELVELSTALEHQEYITFLEDLKSFVKSQ
binding result: binds

— PMC5153404, “Analysis of the Interaction between Globular Head Modules of Human C1q and Its Candidate Receptor gC1qR” (Frontiers in Immunology, 2016)
